To fix the notation:
B3: MBP-Par-3 PDZ1-APM (domain or fragment, Drosophila, UniProt O96782 309-987, looked up)
chain: DGEMLLIINEYGSPLGLTALPDKEHGGGLLVQHVEPGSRAERGQLRRDDRILEINGIKLIGLTESQVQEQLRRALESSELRVRVLRGDRNRRQQRDSKVADMVEVATVSPTRKPHAAPVGTSLQVANTRKLGRKIQIMLKKGPNGLGFSVTTRDNPAGAHCPIYIKNILPRGAAIEDGRLKPGDRLLEVDGTPMTGKTQTDVVAILRGMPAGATVRIVVSRQQELAEQADQPAEKSAGVAVAPSVAPPAVPAAAAPAPPIPVQKSSSARSLFTHQQQSQLNESQHFIDAGSESAASNDSLPPSSNSWHSREELTLHIPVHDTEKAGLGVSVKGKTCSNLNASGSSASSGSNGLMKHDGDLGIFVKNVIHGGAASRDGRLRMNDQLLSVNGVSLRGQNNAEAMETLRRAMVNTPGKHPGTITLLVGRKILRSASSSDILDHSNSHSHSHSNSSGGSNSNGSGNNNNSSSNASDNSGATVIYLSPEKREQRCNGGGGGGSAGNEMNRWSNPVLDRLTGGICSSNSAQPSSQQSHQQQPHPSQQQQQQRRLPAAPVCSSAALRNESYYMATNDNWSPAQMHLMTAHGNTALLIEDDAEPMSPTLPARPHDGQHCNTSSANPSQNLAVGNQGPPINTVPGTPSTSSNFDATYSSQLSLETNSGVEHFSRDALGRRSISEKHHA
notes: Par-3 (Bazooka), Drosophila, residues 309-987 (PDZ1 to the aPKC phosphorylation motif); From pMAL; construct as in PMID 32084408; not shown: MBP, N-terminal, kept; His tag, C-terminal, kept

Conditions in all cases: both partners purified
Assay [1] deals with B3. The assay is described as follows: supernatant depletion assay; MBP-Par-3 (C-terminal his-tag, his-purified) on amylose resin (solid phase); soluble protein left in the supernatant quantified on a Coomassie gel; 10 min at 20 °C; 10 mM Hepes pH 7.5, 100 mM NaCl, 1 mM DTT, 200 μM ATP, 5 mM MgCl2, 0.1% Tween-20; 'apparent'.
Assay [2] addresses B3. The assay is described as follows: pull-down; GST-aPKC PBM on glutathione resin with Par-3 PDZ1-APM and the Par complex as soluble proteins; room temperature, 30 to 60 min; 10 mM Hepes pH 7.5, 100 mM NaCl, 1 mM DTT, 200 μM ATP, 5 mM MgCl2, 0.1% Tween-20; Coomassie gel.
Assay [3] addresses T1, Par-3 PDZ2 (his-purified, soluble) (Drosophila, UniProt O96782 444-533).
T1 construct: Par-3 (Bazooka), Drosophila, residues 444-533; From pET19; also called soluble PDZ2; source: E. coli BL21 (DE3), his-purified
T1 sequence (looked up): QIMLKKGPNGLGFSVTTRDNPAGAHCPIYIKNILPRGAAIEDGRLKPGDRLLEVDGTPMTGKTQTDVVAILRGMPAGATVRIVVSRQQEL
Briefly: supernatant depletion assay; GST-fused protein on glutathione agarose resin (solid phase, 'ligand'); soluble protein ('receptor') left in the supernatant at equilibrium quantified on a Coomassie gel; 1 h at 20 °C; 10 mM Hepes pH 7.5, 100 mM NaCl, 1 mM DTT, 200 μM ATP, 5 mM MgCl2, 0.1% Tween-20; single-site equation; 'apparent' for Par-3 variants that could bind more than one Par complex; ATP replaced with ADP in one ….

For assay [4], the target named is T2, Par-3 PDZ3 (his-purified, soluble) (Drosophila, UniProt O96782 616-741).
T2 construct: Par-3 (Bazooka), Drosophila, residues 616-741; From pET19; source: E. coli BL21 (DE3), his-purified
T2 sequence (looked up): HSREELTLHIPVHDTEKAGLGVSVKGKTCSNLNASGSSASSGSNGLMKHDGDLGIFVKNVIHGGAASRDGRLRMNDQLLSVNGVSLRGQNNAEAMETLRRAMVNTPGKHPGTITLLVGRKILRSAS
The description is as above.

Assay [5] addresses T3, Par complex (his-Par-6, aPKC) (Drosophila, UniProt O97111 1-351; A1Z9X0 1-606).
T3 construct: Par-6, Drosophila, residues 1-351; atypical protein kinase C (aPKC), Drosophila, residues 1-606; Construct as in PMID 32084408; also called full Par complex; source: HEK 293F, transfected (pCMV), purified (Ni-NTA or cobalt resin, Source Q anion exchange)
T3 sequence (looked up) 1: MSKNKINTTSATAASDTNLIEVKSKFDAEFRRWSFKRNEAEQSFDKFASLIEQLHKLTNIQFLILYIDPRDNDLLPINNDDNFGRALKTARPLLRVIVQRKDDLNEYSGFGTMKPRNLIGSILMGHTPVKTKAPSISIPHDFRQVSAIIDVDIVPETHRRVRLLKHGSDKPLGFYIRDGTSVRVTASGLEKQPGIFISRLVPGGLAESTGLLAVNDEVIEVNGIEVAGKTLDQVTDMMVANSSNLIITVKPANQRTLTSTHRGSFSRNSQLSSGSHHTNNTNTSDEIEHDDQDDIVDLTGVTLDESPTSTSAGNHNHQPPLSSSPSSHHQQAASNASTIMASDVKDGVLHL
T3 sequence (looked up) 2: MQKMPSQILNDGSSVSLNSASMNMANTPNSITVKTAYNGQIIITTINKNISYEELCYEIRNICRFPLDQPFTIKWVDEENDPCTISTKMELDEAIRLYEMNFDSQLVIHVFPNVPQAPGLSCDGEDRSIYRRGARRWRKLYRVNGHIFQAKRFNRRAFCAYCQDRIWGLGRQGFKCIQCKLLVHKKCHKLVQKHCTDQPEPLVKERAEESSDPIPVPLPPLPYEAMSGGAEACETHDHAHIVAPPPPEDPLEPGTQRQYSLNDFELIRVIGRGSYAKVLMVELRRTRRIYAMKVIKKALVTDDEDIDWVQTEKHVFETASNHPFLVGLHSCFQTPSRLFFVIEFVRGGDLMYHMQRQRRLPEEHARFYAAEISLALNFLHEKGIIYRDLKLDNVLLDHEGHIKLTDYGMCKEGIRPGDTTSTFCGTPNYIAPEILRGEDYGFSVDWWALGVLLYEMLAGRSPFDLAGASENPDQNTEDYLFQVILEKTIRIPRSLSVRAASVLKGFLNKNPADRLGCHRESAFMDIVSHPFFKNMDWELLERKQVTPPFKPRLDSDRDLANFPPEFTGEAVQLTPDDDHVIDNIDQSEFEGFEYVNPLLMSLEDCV
Briefly: supernatant depletion assay; MBP-Par-3 (C-terminal his-tag, his-purified) on amylose resin (solid phase); soluble protein left in the supernatant quantified on a Coomassie gel; 10 min at 20 °C; 10 mM Hepes pH 7.5, 100 mM NaCl, 1 mM DTT, 200 μM ATP, 5 mM MgCl2, 0.1% Tween-20; 'apparent'.

In assay [6] the target is T4, Par complex Par-6ΔPBM (Drosophila, UniProt O97111 1-343; A1Z9X0 1-606).
T4 construct: aPKC, Drosophila, residues 1-606; Construct as in PMID 32084408; also called Par complex lacking the Par-6 PBM; Par-6ΔPBM/aPKC; source: HEK 293F, transfected (pCMV), purified (Ni-NTA or cobalt resin, Source Q anion exchange)
T4 sequence (looked up) 1: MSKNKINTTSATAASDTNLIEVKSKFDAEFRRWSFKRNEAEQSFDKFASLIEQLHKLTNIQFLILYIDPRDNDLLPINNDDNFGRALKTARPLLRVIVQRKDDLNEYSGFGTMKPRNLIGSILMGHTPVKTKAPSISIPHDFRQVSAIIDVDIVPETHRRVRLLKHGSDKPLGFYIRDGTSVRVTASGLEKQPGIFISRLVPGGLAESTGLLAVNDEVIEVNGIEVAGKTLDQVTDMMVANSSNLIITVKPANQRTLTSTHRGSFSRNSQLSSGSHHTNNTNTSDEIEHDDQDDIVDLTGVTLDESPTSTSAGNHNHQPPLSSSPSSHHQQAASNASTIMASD
T4 sequence (looked up) 2: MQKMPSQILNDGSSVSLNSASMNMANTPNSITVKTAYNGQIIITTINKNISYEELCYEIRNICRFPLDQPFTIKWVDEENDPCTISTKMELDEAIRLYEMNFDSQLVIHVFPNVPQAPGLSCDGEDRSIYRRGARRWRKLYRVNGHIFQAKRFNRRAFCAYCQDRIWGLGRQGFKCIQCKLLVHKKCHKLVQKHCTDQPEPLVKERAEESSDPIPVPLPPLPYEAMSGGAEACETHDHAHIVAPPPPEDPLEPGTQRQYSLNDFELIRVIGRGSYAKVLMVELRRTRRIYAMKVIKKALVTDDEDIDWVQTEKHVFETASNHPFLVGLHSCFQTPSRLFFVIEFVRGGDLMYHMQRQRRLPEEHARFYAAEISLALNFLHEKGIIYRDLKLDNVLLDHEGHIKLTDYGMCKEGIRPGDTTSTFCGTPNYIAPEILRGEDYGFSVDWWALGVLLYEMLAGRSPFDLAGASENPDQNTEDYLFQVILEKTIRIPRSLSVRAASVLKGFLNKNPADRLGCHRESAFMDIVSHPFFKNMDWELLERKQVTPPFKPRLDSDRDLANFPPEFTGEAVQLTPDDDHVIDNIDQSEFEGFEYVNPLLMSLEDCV
Described as above.

B1: aPKC KD-PBM (domain or fragment, Drosophila, UniProt A1Z9X0 259-606, looked up)
chain: YSLNDFELIRVIGRGSYAKVLMVELRRTRRIYAMKVIKKALVTDDEDIDWVQTEKHVFETASNHPFLVGLHSCFQTPSRLFFVIEFVRGGDLMYHMQRQRRLPEEHARFYAAEISLALNFLHEKGIIYRDLKLDNVLLDHEGHIKLTDYGMCKEGIRPGDTTSTFCGTPNYIAPEILRGEDYGFSVDWWALGVLLYEMLAGRSPFDLAGASENPDQNTEDYLFQVILEKTIRIPRSLSVRAASVLKGFLNKNPADRLGCHRESAFMDIVSHPFFKNMDWELLERKQVTPPFKPRLDSDRDLANFPPEFTGEAVQLTPDDDHVIDNIDQSEFEGFEYVNPLLMSLEDCV
notes: From pBH; also called his aPKC kinase domain-PBM; aPKC kinase domain–PBM; source: E. coli BL21 (DE3), his-purified (Ni-NTA) partially under denaturing conditions (8 M urea)
For B1, the binding result in assay [1] is “binds”.

B2: GST-aPKC PBM (domain or fragment, Drosophila, UniProt A1Z9X0 583-606, looked up)
chain: NIDQSEFEGFEYVNPLLMSLEDCV
notes: From pGEX; construct as in PMID 32084408
B2: the binding result in assay [2], in assay [3] and in assay [4] was “binds” throughout.
For the molecule B3, the binding result in assay [5] and in assay [6] was “binds” each time.
